Measurements from US6159731, “Daxx, a Fas-binding protein that activates JNK and apoptosis” (Massachusetts Institute of Technology, dated 2000).

Experiments:
[1] = target: full length murine Fas expressed in cells (murine) (UniProt P25446)
[2] = target: glutathione S-transferase (GST) (Schistosoma japonicum (Blood fluke), UniProt P08515 = GST); assay: GST pull-down of in vitro translated 35S-Daxx
Description: In the two-hybrid system, the Daxx C-terminal region interacted strongly with Fas, confirming that Daxx is the functional homolog of clone A21 (FIG. 1B). We then tested the binding of full length murine Daxx protein in vitro and in mammalian cells. In vitro translated, ^35S-labeled Daxx bound to immobilized glutathione S-transferase (GST) fusion proteins of Fas death domain and TNFR1 intracellular tail but not to immobilized GST or GST-CD40 intracellular tail or GST-Fas lpr^cg death domain (FIG. 3A). Positions of MW standards (in kDa) are shown at left. Coomassie stained GST fusion proteins from the same gel were aligned to show protein levels. Daxx migrated with an apparent molecular weight of approximately 120 kDa on SDS-PAGE; this slower than expected migration may reflect the high content of acidic residues in Daxx. In the GST pull-down assay, ^35S-Daxx bound to GST-FasDD but only very weakly to GST-TNFR1. This discrepancy with the two-hybrid result (FIG. 1) may be due to the nonlinear readout of the two-hybrid system. Deletion of 162 amino acids from the C-terminus of Daxx abrogated binding to GST-FasDD while the C-terminal 112 amino acids (DaxxC) was sufficient to bind GST-FasDD (FIG. 3B), consistent with the two-hybrid results. Daxx(-162) was missing C-terminal 162 aa of Daxx; DaxxC corresponded to aa 628-739. […]

**Q.** With “HA-Daxx (hemagglutinin-tagged full length murine Daxx)” as the molecule, how does the specific apoptosis of L929 cells stably overexpressing Daxx (L/Daxx) after Fas transfection [1] read?
**A.** The specific apoptosis of L929 cells stably overexpressing Daxx (L/Daxx) after Fas transfection was 3 fold.

B1: in vitro translated 35S-labeled full length murine Daxx (other)
chain: MATDDSIIVLDDDDEDEAAAQPGPSNLPPNPASTGPGPGLSQQATGLSEPRVDGGSSNSGSRKCYKLDNEKLFEEFLELCKTETSDHPEVVPFLHKLQQRAQSVFLASAEFCNILSRVLARSRKRPAKIYVYINELCTVLKAHSIKKKLNLAPAASTTSEASGPNPPTEPPSDLTNTENTASEASRTRGSRRQIQRLEQLLALYVAEIRRLQEKELDLSELDDPDSSYLQEARLKRKLIRLFGRLCELKDCSSLTGRVIEQRIPYRGTRYPEVNRRIERLINKPGLDTFPDYGDVLRAVEKAATRHSLGLPRQQLQLLAQDAFRDVGVRLQERRHLDLIYNFGCHLTDDYRPGVDPALSDPTLARRLRENRTLAMNRLDEVISKYAMMQDKTEEGERQKRRARLLGTAPQPSDPPQASSESGEGPSGMASQECPTTSKAETDDDDDDDDDDDEDNEESEEEEEEEEEEKEATEDEDEDLEQLQEDQGGDEEEEGGDNEGNESPTSPSDFFHRRNSEPAEGLRTPEGQQKRGLTETPASPPGASLDPPSTDAESSGEQLLEPLLGDESPVSQLAELEMEALPEERDISSPRKKSEDSLPTILENGAAVVTSTSVNGRVSSHTWRDASPPSKRFRKEKKQLGSGLLGNSYIKEPMAQQDSGQNTSVQPMPSPPLASVASVADSSTRVDSPSHELVTSSLCSPSPSLLLQTPQAQSLRQCIYKTSVATQCDPEEIIVLSDSD
modifications: 35S-labeled (in vitro translated)
**Q.** Does B1 bind [2]?
**A.** Result: no binding
